The results in this text go back to patent EP1959993B1.

For experiment [1], the target named is C-DDD1-Fab-hMN-14 (human). The experiment in a line: equilibrium SE-HPLC.
The target of experiment [2] is N-DDD1-Fab-hMN-14 (human). The experiment in a line: equilibrium SE-HPLC.
In experiment [3] the target is recombinant human RIIα (human) (UniProt P13861). The experiment in a line: equilibrium SE-HPLC.
Experiment [4] deals with C-DDD1-Fab-hMN-14 (human). Briefly: SE-HPLC of the mixture with hMN14-Fab-DDD1; h679-Fab-AD2 not reduced.
Experiment [5] deals with C-DDD1-Fab-hMN-14 (human). The experiment in a line: SE-HPLC of the mixture with hMN14-Fab-DDD1; h679-Fab-AD2 reduced with TCEP.
Experiment [6] has as its target CEA (UniProt P06731). Briefly: SE-HPLC of 125I-TF2 mixed with a 20-fold molar excess of CEA.
The target in experiment [7] is fusion protein containing the A3B3 domain of CEA (UniProt P06731). Briefly: competitive ELISA against HRP-conjugated hMN-14 IgG on the A3B3 fusion protein. Background: An ELISA detects its analyte on a solid surface through an enzyme-linked reagent.

UniProt P13861, sequence (P13861 whole entry): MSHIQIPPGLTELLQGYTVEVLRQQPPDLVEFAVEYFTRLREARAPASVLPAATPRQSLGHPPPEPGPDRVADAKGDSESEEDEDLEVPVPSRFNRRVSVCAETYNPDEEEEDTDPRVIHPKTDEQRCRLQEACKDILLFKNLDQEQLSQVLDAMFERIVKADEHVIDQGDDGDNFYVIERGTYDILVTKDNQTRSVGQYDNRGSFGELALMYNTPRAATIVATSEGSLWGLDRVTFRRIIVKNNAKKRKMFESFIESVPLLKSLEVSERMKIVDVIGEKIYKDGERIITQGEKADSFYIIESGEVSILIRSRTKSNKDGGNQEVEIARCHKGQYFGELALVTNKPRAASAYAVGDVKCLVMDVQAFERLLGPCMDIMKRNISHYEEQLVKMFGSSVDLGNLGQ

Consider h679-Fab-AD1, for which the dissociation constant (Kd) was 15 nM in experiment [1], 8 nM in experiment [2] and 30 nM in experiment [3].
As for h679-Fab-AD2, the fraction reactive in experiment [4] stood at 0.33. In addition, the percent activity in experiment [5] came out at 100%.
With TF2 (bispecific antibody), in experiment [6], the percent shifted to a high molecular weight species worked out at 95%. The substance also yielded an avidity, fold against TF1 in experiment [7] of 2 fold.

Usually Kd stands for the concentration at which binding is half-saturated.
